# Measurements as given in FireProtDB (doi:10.1016/j.bpc.2007.01.004).
# Several values for one entry are separate records, joined by “and”; a condition that tells them apart may be missing. Equal entries are not always repeated.
# Details: Alicyclobacillus acidocaldarius subsp. acidocaldarius, pH 7.5, Phosphate 20 mM, reversible: Yes; for denaturant midpoint (higher = more stable): 20 °C
substance,measurement,setting,value
wild type (from UniProt Q7SIG1),denaturant midpoint (higher = more stable),"GdnHCl, CD",1.9 M and 2.2 M
same,denaturant midpoint (higher = more stable),"GdnHCl, Fluorescence",1.9 M and 2 M and 2.2 M
same,denaturant midpoint (higher = more stable),"Urea, CD",5.9 M and 4.6 M
same,Tm,"Thermal, CD",91 °C and 86 °C
same,unfolding enthalpy (van 't Hoff),"Thermal, CD",105 kcal/mol and 122 kcal/mol and 62.1 kcal/mol
same,Tm,"Thermal, DSC",86 °C
same,heat capacity change of unfolding,"Thermal, DSC",3.82 kcal/mol/K
same,unfolding enthalpy (calorimetric),"Thermal, DSC",265 kcal/mol and 179 kcal/mol
same,unfolding enthalpy (van 't Hoff),"Thermal, DSC",127 kcal/mol and 83.7 kcal/mol
same,heat capacity change of unfolding,"Thermal, DSC, transition: 3",1.67 kcal/mol/K and 2.15 kcal/mol/K
